# Patent US20140271457A1 (AbbVie / Abbott, published 2014)
# Molecular target: Recombinant Human IL-13 (human, UniProt P35225 35-146, limits assumed)
# Assay: Biacore SPR
# Method: The BIACORE assay (GE, Healthcare Piscataway, N.J.) determined the affinity of antibodies or DVD-Ig with kinetic measurements of on-rate and off-rate constants. Binding of antibodies or DVD-Ig proteins to a target antigen (for example, a purified recombinant target antigen) was determined by surface plasmon resonance-based measurements with a Biacore T200 using running HBS-EP+buffer from GE Healthcare at 25° C. All chemicals were obtained from GE Healthcare or otherwise from a different source as described in the text. For example, approximately 5000 RU of goat anti-mouse IgG, (Fcγ), fragment specific polyclonal antibody (Pierce Biotechnology Inc, Rockford, Ill.) diluted in 10 mM sodium acetate (pH 4.5) was directly immobilized across a CM5 research grade biosensor chip using a standard amine coupling kit according to manufacturer's instructions. Unreacted moieties on the biosensor surface were blocked with ethanolamine. Modified carboxymethyl dextran surface in flowcell 1 was used as a reference surface. Rate constants were derived by making kinetic binding measurements at different antigen concentrations ranging from 0.8-100 nM. Binding was recorded as a function of time and kinetic rate constants were calculated. In this assay, association rate was evaluated for 5 min and dissociation was monitored for 10 min. For kinetic screening analysis, rate equations derived from the 1:1 binding model were fitted simultaneously to association and dissociation phases of all injections (using global fit analysis with Rmax fit locally to account for capture variations) with the use of Biaevaluation software. Purified antibodies or DVD-Ig proteins were diluted in HEPES-buffered saline for capture across goat anti-mouse IgG specific reaction surfaces. Antibodies or DVD-Ig proteins to be captured as a ligand were injected over reaction matrices at a flow rate of 5 μl/minute. The association and dissociation rate constants, kₒₙ (M⁻¹ s⁻¹) and koff (s⁻¹) were determined under a continuous flow rate of 50 μl/minute. Rate constants were derived by making kinetic binding measurements at different antigen concentrations ranging from 0.8-100 nM. Binding was recorded as a function of time and kinetic rate constants were calculated. In this assay, association rate was evaluated for 5 min and dissociation was monitored for 10 min.
# Sequence of Recombinant Human IL-13 (P35225 35-146 limits assumed): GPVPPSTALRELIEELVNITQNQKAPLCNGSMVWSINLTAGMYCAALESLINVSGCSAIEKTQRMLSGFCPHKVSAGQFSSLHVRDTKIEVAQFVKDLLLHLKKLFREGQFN
Kd,koff,kon,Binder
0.47 nM,5e-05 s⁻¹,110000 M⁻¹ s⁻¹,"DVD2687 (bispecific antibody, IgG1, DVD-Ig; wt hIgG1 + kappa constants) VH: EVQLVESGGGLVQPGGSLRLSCAASGFTFSNYGVTWVRQAPGKGLEWVSMIWADGSTHYASSVKGRFTISRDNSKNTLYLQMNSLRAEDTAVYYCAREWQHGPVAYWGQGTLVTVSSASTKGPSVFPLAPEVTLRESGPGLVKPTQTLTLTCTLYGFSLSTSDMGVDWIRQPPGKGLEWLAHIWWDDVKRYNPALKSRLTISKDTSKNQVVLKLTSVDPVDTATYYCARTVSSGYIYYAMDYWGQGTLVTVSS VL: DIQMTQSPSSLSASVGDRVTITCRASQLVSSAVAWYQQKPGKAPKLLIYWASARHTGVPSRFSGSGSGTDFTLTISSLQPEDFATYYCQQHYKTPFTFGQGTKLEIKRTVAAPDIQMTQSPSSLSASVGDRVTISCRASQDIRNYLNWYQQKPGKAPKLLIFYTSKLHSGVPSRFSGSGSGTDYTLTISSLQPEDIATYYCQQGLTPPLTFGGGTKVEIKR"
0.5 nM,6.2e-05 s⁻¹,120000 M⁻¹ s⁻¹,"DVD2737 (bispecific antibody, IgG1, DVD-Ig; wt hIgG1 + kappa constants) VH: EVQLVESGGGLVQPGGSLRLSCAASGFTFSNYGVEWVRQAPGKGLEWVSGIWADGSTHYADTVKSRFTISRDNSKNTLYLQMNSLRAEDTAVYYCAREWQHGPVAYWGQGTLVTVSSASTKGPSVFPLAPEVTLRESGPGLVKPTQTLTLTCTLYGFSLSTSDMGVDWIRQPPGKGLEWLAHIWWDDVKRYNPALKSRLTISKDTSKNQVVLKLTSVDPVDTATYYCARTVSSGYIYYAMDYWGQGTLVTVSS VL: DIQMTQSPSSLSASVGDRVTITCKASQLVSSAVAWYQQKPGKAPKLLIYWASTLHTGVPSRFSGSGSGTDFTLTISSLQPEDFATYYCQQHYRTPFTFGQGTKLEIKRTVAAPDIQMTQSPSSLSASVGDRVTISCRASQDIRNYLNWYQQKPGKAPKLLIFYTSKLHSGVPSRFSGSGSGTDYTLTISSLQPEDIATYYCQQGLTPPLTFGGGTKVEIKR"
0.038 nM,2e-06 s⁻¹,52000 M⁻¹ s⁻¹,"DVD3083 (bispecific antibody, IgG1, DVD-Ig; wt hIgG1 + kappa constants) VH: EVQLVESGGGLVQPGGSLRLSCAASGFTFSNYGVTWVRQAPGKGLEWVSMIWADGSTHYASSVKGRFTISRDNSKNTLYLQMNSLRAEDTAVYYCAREWQHGPVAYWGQGTLVTVSSGGGGSGGGGSEVQLVQSGAEVKKPGASVKVSCKASGYTFTTYGVSWVRQAPGQGLEWMGEIYPGNYNTYYNEKFRGRVTMTTDTSTSTAYMELRSLRSDDTAVYYCARWRTSYFSDYGYFDYWGQGTTVTVSS VL: DIQMTQSPSSLSASVGDRVTITCRASQLVSSAVAWYQQKPGKAPKLLIYWASARHTGVPSRFSGSGSGTDFTLTISSLQPEDFATYYCQQHYKTPFTFGQGTKLEIKRGGSGGGGSGDVVMTQSPLSLPVTLGQPASISCRSSQSLVHSHGNTYLHWYQQRPGQSPRLLIYTVSNRFSGVPDRFSGSGSGTDFTLKISRVEAEDVGVYYCSQSTHVPYTFGGGTKVEIKR"
< 0.02 nM,< 1e-06 s⁻¹,51000 M⁻¹ s⁻¹,"DVD3093 (bispecific antibody, IgG1, DVD-Ig; wt hIgG1 + kappa constants) VH: EVQLVESGGGLVQPGGSLRLSCAASGFTFSNYGVEWVRQAPGKGLEWVSGIWADGSTHYADTVKSRFTISRDNSKNTLYLQMNSLRAEDTAVYYCAREWQHGPVAYWGQGTLVTVSSGGGGSGGGGSEVQLVQSGAEVKKPGASVKVSCKASGYTFTTYGVSWVRQAPGQGLEWMGEIYPGNYNTYYNEKFRGRVTMTTDTSTSTAYMELRSLRSDDTAVYYCARWRTSYFSDYGYFDYWGQGTTVTVSS VL: DIQMTQSPSSLSASVGDRVTITCKASQLVSSAVAWYQQKPGKAPKLLIYWASTLHTGVPSRFSGSGSGTDFTLTISSLQPEDFATYYCQQHYRTPFTFGQGTKLEIKRGGSGGGGSGDVVMTQSPLSLPVTLGQPASISCRSSQSLVHSHGNTYLHWYQQRPGQSPRLLIYTVSNRFSGVPDRFSGSGSGTDFTLKISRVEAEDVGVYYCSQSTHVPYTFGGGTKVEIKR"
0.13 nM,0.00013 s⁻¹,950000 M⁻¹ s⁻¹,"DVD2691 (bispecific antibody, IgG1, DVD-Ig; wt hIgG1 + kappa constants) VH: EVTLRESGPGLVKPTQTLTLTCTLYGFSLSTSDMGVDWIRQPPGKGLEWLAHIWWDDVKRYNPALKSRLTISKDTSKNQVVLKLTSVDPVDTATYYCARTVSSGYIYYAMDYWGQGTLVTVSSASTKGPEVQLVESGGGLVQPGGSLRLSCAASGFTFSNYGVTWVRQAPGKGLEWVSMIWADGSTHYASSVKGRFTISRDNSKNTLYLQMNSLRAEDTAVYYCAREWQHGPVAYWGQGTLVTVSS VL: DIQMTQSPSSLSASVGDRVTISCRASQDIRNYLNWYQQKPGKAPKLLIFYTSKLHSGVPSRFSGSGSGTDYTLTISSLQPEDIATYYCQQGLTPPLTFGGGTKVEIKRTVAAPSVFIFPPDIQMTQSPSSLSASVGDRVTITCRASQLVSSAVAWYQQKPGKAPKLLIYWASARHTGVPSRFSGSGSGTDFTLTISSLQPEDFATYYCQQHYKTPFTFGQGTKLEIKR"
0.36 nM,3.2e-05 s⁻¹,87000 M⁻¹ s⁻¹,"DVD3009 (bispecific antibody, IgG1, DVD-Ig; wt hIgG1 + kappa constants) VH: EVQLVQSGAEVKKPGASVKVSCKASGYTFNNYGIIWVRQAPGQGLEWMGWINTYTGKPTYAQKFQGRVTMTTDTSTSTAYMELSSLRSEDTAVYYCARKLFNTVAVTDNAMDYWGQGTTVTVSSASTKGPEVTLRESGPGLVKPTQTLTLTCTLYGFSLSTSDMGVDWIRQPPGKGLEWLAHIWWDDVKRYNPALKSRLTISKDTSKNQVVLKLTSVDPVDTATYYCARTVSSGYIYYAMDYWGQGTLVTVSS VL: DIQMTQSPSSLSASVGDRVTITCRASQDIENYLNWYQQKPGKAPKLLIYYTSRLQSGVPSRFSGSGSGTDFTLTISSLQPEDFATYFCQQGNTQPPTFGQGTKLEIKRTVAAPDIQMTQSPSSLSASVGDRVTISCRASQDIRNYLNWYQQKPGKAPKLLIFYTSKLHSGVPSRFSGSGSGTDYTLTISSLQPEDIATYYCQQGLTPPLTFGGGTKVEIKR"
0.012 nM,1.1e-06 s⁻¹,87000 M⁻¹ s⁻¹,"DVD3084 (bispecific antibody, IgG1, DVD-Ig; wt hIgG1 + kappa constants) VH: EVQLVESGGGLVQPGGSLRLSCAASGFTFSNYGVTWVRQAPGKGLEWVSMIWADGSTHYASSVKGRFTISRDNSKNTLYLQMNSLRAEDTAVYYCAREWQHGPVAYWGQGTLVTVSSASTKGPEVQLVQSGAEVKKPGASVKVSCKASGYTFTTYGVSWVRQAPGQGLEWMGEIYPGNYNTYYNEKFRGRVTMTTDTSTSTAYMELRSLRSDDTAVYYCARWRTSYFSDYGYFDYWGQGTTVTVSS VL: DIQMTQSPSSLSASVGDRVTITCRASQLVSSAVAWYQQKPGKAPKLLIYWASARHTGVPSRFSGSGSGTDFTLTISSLQPEDFATYYCQQHYKTPFTFGQGTKLEIKRTVAAPDVVMTQSPLSLPVTLGQPASISCRSSQSLVHSHGNTYLHWYQQRPGQSPRLLIYTVSNRFSGVPDRFSGSGSGTDFTLKISRVEAEDVGVYYCSQSTHVPYTFGGGTKVEIKR"
0.14 nM,1.5e-05 s⁻¹,110000 M⁻¹ s⁻¹,"DVD3008 (bispecific antibody, IgG1, DVD-Ig; wt hIgG1 + kappa constants) VH: EVQLVQSGAEVKKPGASVKVSCKASGYTFNNYGIIWVRQAPGQGLEWMGWINTYTGKPTYAQKFQGRVTMTTDTSTSTAYMELSSLRSEDTAVYYCARKLFNTVAVTDNAMDYWGQGTTVTVSSGGGGSGGGGSEVTLRESGPGLVKPTQTLTLTCTLYGFSLSTSDMGVDWIRQPPGKGLEWLAHIWWDDVKRYNPALKSRLTISKDTSKNQVVLKLTSVDPVDTATYYCARTVSSGYIYYAMDYWGQGTLVTVSS VL: DIQMTQSPSSLSASVGDRVTITCRASQDIENYLNWYQQKPGKAPKLLIYYTSRLQSGVPSRFSGSGSGTDFTLTISSLQPEDFATYFCQQGNTQPPTFGQGTKLEIKRGGSGGGGSGDIQMTQSPSSLSASVGDRVTISCRASQDIRNYLNWYQQKPGKAPKLLIFYTSKLHSGVPSRFSGSGSGTDYTLTISSLQPEDIATYYCQQGLTPPLTFGGGTKVEIKR"
0.32 nM,4.4e-05 s⁻¹,140000 M⁻¹ s⁻¹,"DVD2686 (bispecific antibody, IgG1, DVD-Ig; wt hIgG1 + kappa constants) VH: EVQLVESGGGLVQPGGSLRLSCAASGFTFSNYGVTWVRQAPGKGLEWVSMIWADGSTHYASSVKGRFTISRDNSKNTLYLQMNSLRAEDTAVYYCAREWQHGPVAYWGQGTLVTVSSASTKGPEVTLRESGPGLVKPTQTLTLTCTLYGFSLSTSDMGVDWIRQPPGKGLEWLAHIWWDDVKRYNPALKSRLTISKDTSKNQVVLKLTSVDPVDTATYYCARTVSSGYIYYAMDYWGQGTLVTVSS VL: DIQMTQSPSSLSASVGDRVTITCRASQLVSSAVAWYQQKPGKAPKLLIYWASARHTGVPSRFSGSGSGTDFTLTISSLQPEDFATYYCQQHYKTPFTFGQGTKLEIKRTVAAPSVFIFPPDIQMTQSPSSLSASVGDRVTISCRASQDIRNYLNWYQQKPGKAPKLLIFYTSKLHSGVPSRFSGSGSGTDYTLTISSLQPEDIATYYCQQGLTPPLTFGGGTKVEIKR"
0.3 nM,4.6e-05 s⁻¹,150000 M⁻¹ s⁻¹,"DVD2736 (bispecific antibody, IgG1, DVD-Ig; wt hIgG1 + kappa constants) VH: EVQLVESGGGLVQPGGSLRLSCAASGFTFSNYGVEWVRQAPGKGLEWVSGIWADGSTHYADTVKSRFTISRDNSKNTLYLQMNSLRAEDTAVYYCAREWQHGPVAYWGQGTLVTVSSASTKGPEVTLRESGPGLVKPTQTLTLTCTLYGFSLSTSDMGVDWIRQPPGKGLEWLAHIWWDDVKRYNPALKSRLTISKDTSKNQVVLKLTSVDPVDTATYYCARTVSSGYIYYAMDYWGQGTLVTVSS VL: DIQMTQSPSSLSASVGDRVTITCKASQLVSSAVAWYQQKPGKAPKLLIYWASTLHTGVPSRFSGSGSGTDFTLTISSLQPEDFATYYCQQHYRTPFTFGQGTKLEIKRTVAAPSVFIFPPDIQMTQSPSSLSASVGDRVTISCRASQDIRNYLNWYQQKPGKAPKLLIFYTSKLHSGVPSRFSGSGSGTDYTLTISSLQPEDIATYYCQQGLTPPLTFGGGTKVEIKR"
